What follows are substances tested against Alcalase® (Bacillus) (UniProt P00780) (assay: titration of Alcalase with inhibitor, residual activity on synthetic peptide substrates, non-linear regression; 0.1M Tris-HCl pH 8.6, 25 C).
Work on CI-2(M59P) yielded a Kd of 5000 pM.
For “Wild-type barley subtilisin inhibitor CI-2”, the Kd was 4 pM.
Substance CI-2(V57E) has a Kd of 100 pM.

Source: US5674833
